Tests used:
人TIM-1 = target: T1, 人TIM-1 (human, UniProt Q96D42 21-295, limits assumed); assay: ELISA, plate coated with human TIM-1
T1 sequence (looked up): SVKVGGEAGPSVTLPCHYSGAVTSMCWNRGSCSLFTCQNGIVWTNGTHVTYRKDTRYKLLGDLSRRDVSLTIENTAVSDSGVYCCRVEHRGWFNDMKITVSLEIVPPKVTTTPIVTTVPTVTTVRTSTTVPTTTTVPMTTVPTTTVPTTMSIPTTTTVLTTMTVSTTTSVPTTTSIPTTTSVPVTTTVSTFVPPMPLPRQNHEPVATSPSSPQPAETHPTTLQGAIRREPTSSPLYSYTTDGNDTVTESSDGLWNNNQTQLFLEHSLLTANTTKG

人TIM-4 = target: T2, 人TIM-4 (human, UniProt Q96H15 25-314, limits assumed); assay: ELISA, plate coated with human TIM-4
T2 sequence (looked up): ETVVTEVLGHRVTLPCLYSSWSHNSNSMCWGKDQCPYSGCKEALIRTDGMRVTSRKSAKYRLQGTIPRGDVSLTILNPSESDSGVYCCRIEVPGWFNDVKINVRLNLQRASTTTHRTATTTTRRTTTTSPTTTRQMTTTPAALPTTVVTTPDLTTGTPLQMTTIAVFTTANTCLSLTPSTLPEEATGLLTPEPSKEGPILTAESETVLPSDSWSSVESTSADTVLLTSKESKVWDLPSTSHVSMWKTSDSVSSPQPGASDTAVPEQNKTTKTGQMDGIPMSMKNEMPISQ

binding result (人TIM-1): no binding
binding result (人TIM-4): no binding
B1: W3402-2.131.17-z3 (antibody, V domains shown)
VH: QVQLQESGPGLVKPSETLSLTCTVSGFSLTNYGVGWIRQPPGKGLEWIGIMTSGGSTYYNSALRARVTINRDTSKNQFSLKLSSVTAADTAVYYCTRDGTTVETLFDYWGQGTMVTVSS
VL: DIVMTQTPLSLSVTPGQPASISCRSSQSLSDSAGITYLYWYLQKPGQSPQLLIYLASNLGSGVPDRFSGSGSGTDFTLKISRVEAEDVGVYYCMQGIHVPLTFGQGTKLEIK
notes: Humanized monoclonal antibody with a kappa light chain; also called W3402-z3; 人源化变体W3402-z3

Source: patent publication CN110305216A (WUXI ZHIKANG HONGYI BIOTECHNOLOGY CO LTD, dated 2019)
